Assays:
[1] = target: Bacillus anthracis protective antigen (PA), 83 kDa polypeptide (Bacillus anthracis) (UniProt P13423)
[2] = target: Bacillus anthracis protective antigen (PA), 83 kDa polypeptide (Bacillus anthracis) (UniProt P13423); remark: listed apart in the source

Sequence of Bacillus anthracis protective antigen (PA), 83 kDa polypeptide (Bacillus anthracis) (P13423 30-764 limits assumed): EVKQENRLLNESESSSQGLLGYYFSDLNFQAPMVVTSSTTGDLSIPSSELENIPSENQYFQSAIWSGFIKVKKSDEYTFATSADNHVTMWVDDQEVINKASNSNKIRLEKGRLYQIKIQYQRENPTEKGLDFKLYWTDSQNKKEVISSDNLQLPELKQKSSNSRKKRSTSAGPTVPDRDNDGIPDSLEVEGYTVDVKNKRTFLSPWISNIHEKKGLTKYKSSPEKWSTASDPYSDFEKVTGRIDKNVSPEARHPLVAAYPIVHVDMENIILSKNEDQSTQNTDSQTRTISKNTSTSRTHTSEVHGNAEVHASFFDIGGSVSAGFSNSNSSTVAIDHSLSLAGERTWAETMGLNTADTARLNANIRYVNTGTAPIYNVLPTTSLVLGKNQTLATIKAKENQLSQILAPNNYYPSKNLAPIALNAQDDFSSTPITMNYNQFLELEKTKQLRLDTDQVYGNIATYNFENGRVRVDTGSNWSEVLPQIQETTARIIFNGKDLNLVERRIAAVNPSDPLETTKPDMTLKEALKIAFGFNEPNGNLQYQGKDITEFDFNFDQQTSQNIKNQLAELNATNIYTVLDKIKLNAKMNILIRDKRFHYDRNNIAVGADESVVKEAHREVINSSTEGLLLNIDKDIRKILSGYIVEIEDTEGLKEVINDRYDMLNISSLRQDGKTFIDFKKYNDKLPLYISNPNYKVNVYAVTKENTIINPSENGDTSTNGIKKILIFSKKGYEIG

14B7 scFv with the mutation L97Leu:Ala was tested. Which fold higher KD than 14B7 [1] did it give?
The fold higher KD than 14B7 was greater than 5 fold.

What about the Kd [2] of the same substance?
The Kd was 63 nM.

What about the koff [2] of the same substance?
The koff was 0.019 s⁻¹.

What about the kon [2] of the same substance?
The kon was 300000 M⁻¹ s⁻¹.
